The values that follow come from PMC3246441, “Structural Basis of Response Regulator Inhibition by a Bacterial Anti-Activator Protein” (PLoS Biology, 2011).

Where a chain is given by its changes, count along the chain named. Numbers in names are those of the source.

The chains are these.
B1: ComA-T190A (His-ComA mutant) (natural protein, B. subtilis, UniProt P14204 1-214, looked up)
chain: MKKILVIDDHPAVMEGTKTILETDSNLSVDCLSPEPSEQFIKQHDFSSYDLILMDLNLGGEVNGMELSKQILQENPHCKIIVYTGYEVEDYFEEAIRAGLHGAISKTESKEKITQYIYHVLNGEILVDFAYFKQLMTQQKTKPAPSSQKEQDVLTPRECLILQEVEKGFTNQEIADALHLSKRSIEYSLASIFNKLNVGSRTEAVLIAKSDGVL
notes: ComA, Bacillus subtilis, full length, with one alanine substitution
B2: His-ComA (wild-type full-length ComA with His tag) (natural protein, B. subtilis, UniProt P14204 1-214, looked up)
chain: B1 chain with A190T
notes: ComA response regulator, Bacillus subtilis, full length; Purification of His-ComA is in Text S1; also called ComA2
B3: ComA-Y187A (His-ComA mutant) (natural protein, B. subtilis, UniProt P14204 1-214, looked up)
chain: B1 chain with Y187A, A190T
notes: as for B1
B4: ComA-N194A (His-ComA mutant) (natural protein, B. subtilis, UniProt P14204 1-214, looked up)
chain: B1 chain with A190T, N194A
notes: as for B1
B5: ComA-R157A (His-ComA mutant) (natural protein, B. subtilis, UniProt P14204 1-214, looked up)
chain: B1 chain with R157A, A190T
notes: as for B1
B6: ComA (wild-type full-length ComA, no tag named) (natural protein, B. subtilis, UniProt P14204 1-214, looked up)
chain: B1 chain with A190T
notes: ComA response regulator, Bacillus subtilis, full length; Native PAGE used 'either 10 µM ComA or 10 µM His-ComA as indicated'; Purification of ComA is in Text S1; also called ComAFL
B7: RapF (natural protein, B. subtilis)
chain: GSMTGVISSSSIGEKINEWYMYIRRFSIPDAEYLRREIKQELDQMEEDQDLHLYYSLMEFRHNLMLEYLEPLEKMRIEEQPRLSDLLLEIDKKQARLTGLLEYYFNFFRGMYELDQREYLSAIKFFKKAESKLIFVKDRIEKAEFFFKMSESYYYMKQTYFSMDYARQAYEIYKEHEAYNIRLLQCHSLFATNFLDLKQYEDAISHFQKAYSMAEAEKQPQLMGRTLYNIGLCKNSQSQYEDAIPYFKRAIAVFEESNILPSLPQAYFLITQIHYKLGKIDKAHEYHSKGMAYSQKAGDVIYLSEFEFLKSLYLSGPDEEAIQGFFDFLESKMLYADLEDFAIDVAKYYHERKNFQKASAYFLKVEQVRQLIQGGVSLYEIEV
notes: two heterologous residues (Gly-Ser) derived from the thrombin cleavage signal, left after removal of the N-terminal GST; RapF, Bacillus subtilis, residues 1-381; The purification is told under 'Protein Purification for Crystallization'; Monomer by SE AUC; also called wild-type RapF; source: E. coli BL21, purified (glutathione resin, thrombin cleavage, anion exchange, gel filtration); not shown: …
B8: PhrF peptide (peptide)
peptide: QRGMI
notes: mature PhrF signalling pentapeptide of Bacillus subtilis, cut from the pro-PhrF polypeptide; Free N- and C-termini as printed (NH2-QRGMI-COOH); also called synthetic PhrF peptide; NH2-QRGMI-COOH; source: synthetic peptide (LifeTein)
B9: ComA DNA binding domain (ComAC) (domain or fragment, B. subtilis, UniProt P14204 146-214, looked up)
chain: SSQKEQDVLTPRECLILQEVEKGFTNQEIADALHLSKRSIEYSLTSIFNKLNVGSRTEAVLIAKSDGVL
notes: also called His-ComAC

Data set [1] concerns the target B7. The data set is described as follows: native gel or EMSA; 10 µM RapF and 10 µM ComA or His-ComA incubated in Buffer A (20 mM Tris pH 8.0, 300 mM NaCl, 5 mM MgCl2, 1 mM DTT, 5% glycerol) 30 min at 4°C; 12% Tris-glycine native PAGE at 4°C, Coomassie; disappearance of the ComA band as indicator. To be noted: both partners purified.
Data set [2] concerns the molecule itself. The data set is described as follows: SEC; Superdex 200 HR10/30 in Buffer A; RapF 20 µM, His-ComA 40 µM, incubated 30 min at 4°C; fractions by SDS-PAGE; no PhrF. (Size exclusion chromatography separates by hydrodynamic size, large species first.)
In data set [3] the target is T1, RapF-E71A (B. subtilis, UniProt P71002 2-381, E71A).
T1 construct: RapF, Bacillus subtilis, with one alanine substitution; Text S1 may tell
T1 sequence: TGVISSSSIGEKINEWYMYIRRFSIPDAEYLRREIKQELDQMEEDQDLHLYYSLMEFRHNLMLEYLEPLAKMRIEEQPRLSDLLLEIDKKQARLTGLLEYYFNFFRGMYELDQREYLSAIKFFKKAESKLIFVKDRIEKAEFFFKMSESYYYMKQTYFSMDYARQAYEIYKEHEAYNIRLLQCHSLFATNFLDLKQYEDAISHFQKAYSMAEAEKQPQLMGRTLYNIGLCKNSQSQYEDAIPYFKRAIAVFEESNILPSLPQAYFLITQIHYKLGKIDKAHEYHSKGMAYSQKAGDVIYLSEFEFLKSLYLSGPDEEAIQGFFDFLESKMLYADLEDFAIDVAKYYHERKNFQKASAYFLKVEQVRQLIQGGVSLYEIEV
The data set can be described thus: native gel or EMSA; 10 µM RapF and 10 µM ComA or His-ComA incubated in Buffer A (20 mM Tris pH 8.0, 300 mM NaCl, 5 mM MgCl2, 1 mM DTT, 5% glycerol) 30 min at 4°C; 12% Tris-glycine native PAGE at 4°C, Coomassie; disappearance of the ComA band as indicator. As to conditions: both partners purified. (In general: A gel shift assay detects complexes by their altered migration in electrophoresis.)

The target in data set [4] is T2, RapF-P27A (B. subtilis, UniProt P71002 2-381, P27A).
T2 construct: RapF, Bacillus subtilis, with one alanine substitution; Text S1 may tell
T2 sequence: T1 sequence with P26A, A70E
Described as above. To be noted: both partners purified.

For data set [5], the target named is B7. The data set can be described thus: native gel or EMSA; native PAGE binding studies with a broad concentration range of RapF and a fixed quantity of ComA (unpublished data), together with the qualitative gels; Kd is an estimate. To be noted: both partners purified.
In data set [6] the target is B2. The data set can be described thus: SEC + other: total amino acid analysis; 40 µM RapF and 80 µM His-ComA in Buffer A on Superdex 200 HR10/30; fractions 12.0-13.5 ml, bands separated by SDS-PAGE and excised for total amino acid analysis (unpublished data). To be noted: both partners purified.
For data set [7], the target named is B7. The data set is described as follows: SEC; Superdex 200 HR10/30 in Buffer A; RapF 20 µM, His-ComA 40 µM, with PhrF 200 µM, incubated 30 min at 4°C; fractions by SDS-PAGE. As to conditions: both partners purified.
The target in data set [8] is B7. The data set is described as follows: crystal structure; RapF-ComAC co-crystals, vapor diffusion at 20°C, 1∶1 mixture of 100 µM RapF and ComAC; 6% PEG 8,000, 240 mM calcium acetate, 80 mM sodium cacodylate pH 6.5, 20% glycerol; 2.30 Å. To be noted: both partners purified.

For B1, the binding result in data set [1] is on record as “binds”.

In the case of B2, the stoichiometry N (commonly a count of units in the complex or per binding partner) in data set [2] is 2.

With B3, in data set [1], the binding result is reported as “binds”.

B4: the binding result in data set [1] is on record as “binds”.

As for B5, the binding result in data set [1] is “binds”.

Take B6: the binding result in data set [3] and in data set [4] was “binds” each time. Also, the Kd (as a rule, the equilibrium constant for the complex coming apart) in data set [5] is 1 to 10 µM.

On to B7, for which, in data set [6], the “stoichiometry N” value was 1.

With B8, in data set [7], the binding result was “binds”.

On to B9, for which the binding result in data set [8] is on record as “binds”.
